Reference: patent US20230220042A1 (SHANGHAI JIAO TONG UNIVERSITY SCHOOL OF MEDICINE, published 2023)

T1: FcγRIIB (human, UniProt P31994 43-217, biotin-labeled)
T1 construct: extracellular domain; Bought protein; also called CD32b
T1 sequence (looked up): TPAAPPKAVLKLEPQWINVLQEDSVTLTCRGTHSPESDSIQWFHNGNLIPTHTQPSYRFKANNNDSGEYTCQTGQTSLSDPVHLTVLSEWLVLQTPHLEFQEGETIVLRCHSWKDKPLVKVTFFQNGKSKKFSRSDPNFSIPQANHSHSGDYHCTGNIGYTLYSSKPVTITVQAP

T2: FcγRIIA^131H (human, UniProt P12318 34-217, biotin-labeled)
T2 construct: extracellular domain; Bought protein; also called RIIAH
T2 sequence (looked up): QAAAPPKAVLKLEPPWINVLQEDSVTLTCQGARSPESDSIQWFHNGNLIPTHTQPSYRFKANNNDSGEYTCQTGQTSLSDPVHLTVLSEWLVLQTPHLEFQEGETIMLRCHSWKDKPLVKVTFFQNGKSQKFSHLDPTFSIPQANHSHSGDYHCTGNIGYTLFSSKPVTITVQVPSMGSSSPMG

T3: FcγRIIA^131R (human, UniProt P12318 34-217, biotin-labeled)
T3 construct: extracellular domain; Bought protein; also called RIIAR
T3 sequence (looked up): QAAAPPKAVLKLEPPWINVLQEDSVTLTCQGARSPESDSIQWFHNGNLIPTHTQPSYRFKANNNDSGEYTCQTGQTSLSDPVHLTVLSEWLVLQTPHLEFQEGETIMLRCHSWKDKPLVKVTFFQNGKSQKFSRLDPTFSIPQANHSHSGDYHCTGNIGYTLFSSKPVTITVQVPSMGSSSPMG


Columns and labels:
[1] = target: T1, FcγRIIB; assay: ELISA; relative affinity to FcγRIIB over that to FcγRIIA131R
Protocol: (§1) One hundred μl (2 μg/mL) of antibody or mutant thereof were added to the enzyme-linked plate to be coated overnight, then the supernatant was discarded. The plate was blocked with PBS containing 1% BSA for 2 hours, and washed with PBST (PBS containing 0.05% Tween 20). Biotin-labeled FcγR extracellular domain protein (Beijing Sino Biological Co., Ltd) of appropriate concentration was added and incubated at room temperature for 1 hour, then the supernatant was discarded and the plate was washed with PBST. The Biotin-labeled protein was detected by incubating with Streptavidin-HRP (BD BioSciences) at room temperature for 1 hour. The supernatant was removed, and the color-developing solution was added for color development for 20-40 minutes to determine the absorbance of 650 nm (A650).
(§2) Anti-human OX40 antibodies containing these new Fc mutation combinations are expressed and the binding property of the mutant antibody to FcγR are analyzed by Enzyme-linked immunosorbent assay (ELISA).

[2] = target: T2, FcγRIIA^131H; assay: ELISA, coated antibody, biotin-FcγR;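 for Absorbance value: antibody coated at 2 µg/mL at 100 µL per well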
Protocol: as §1, §2

[3] = target: T4, FcγRI (human, UniProt P12314 16-292, biotin-labeled); assay: ELISA, coated antibody, biotin-FcγR;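 for Absorbance value: antibody coated at 2 µg/mL at 100 µL per well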
T4 construct: extracellular domain; Bought protein; also called CD64
Protocol: as §1, §2

[4] = target: T1, FcγRIIB; assay: ELISA, coated antibody, biotin-FcγR;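 for Absorbance value: antibody coated at 2 µg/mL at 100 µL per well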
Protocol: as §1, §2

[5] = target: T5, FcγRIIIA^158V (human, UniProt P08637 17-208, biotin-labeled); assay: ELISA, coated antibody, biotin-FcγR;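 for Absorbance value: antibody coated at 2 µg/mL at 100 µL per well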
T5 construct: extracellular domain; Bought protein; also called RIIIAV; CD16a 158V
Protocol: as §1, §2

[6] = target: T3, FcγRIIA^131R; assay: ELISA, coated antibody, biotin-FcγR;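 for Absorbance value: antibody coated at 2 µg/mL at 100 µL per well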
Protocol: as §1, §2

[7] = target: T6, FcγRIIIA^158F (human, UniProt P08637 17-208, biotin-labeled); assay: ELISA, coated antibody, biotin-FcγR;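 for Absorbance value: antibody coated at 2 µg/mL at 100 µL per well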
T6 construct: extracellular domain; Bought protein; also called RIIIAF
Protocol: as §1, §2

T4 sequence (P12314 16-292): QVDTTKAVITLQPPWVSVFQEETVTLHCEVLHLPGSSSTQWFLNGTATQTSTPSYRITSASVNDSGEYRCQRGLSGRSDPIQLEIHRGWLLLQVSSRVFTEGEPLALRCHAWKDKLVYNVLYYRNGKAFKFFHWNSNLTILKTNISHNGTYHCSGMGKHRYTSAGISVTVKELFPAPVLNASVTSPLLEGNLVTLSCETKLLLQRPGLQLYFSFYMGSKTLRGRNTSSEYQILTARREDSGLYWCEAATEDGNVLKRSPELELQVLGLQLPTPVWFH
T5 sequence (P08637 17-208 F176V): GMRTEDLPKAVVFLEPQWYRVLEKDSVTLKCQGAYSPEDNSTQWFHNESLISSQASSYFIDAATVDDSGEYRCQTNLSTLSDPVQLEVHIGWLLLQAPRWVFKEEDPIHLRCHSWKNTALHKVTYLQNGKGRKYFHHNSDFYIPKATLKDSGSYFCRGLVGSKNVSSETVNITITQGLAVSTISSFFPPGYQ
T6 sequence (P08637 17-208): as the sequence (P08637 17-208 F176V) above, with V160F counted along it

Binder | RIIB/RIIAR [1] [ratio] | Absorbance value [2] [A650] | Relative binding affinity RIIAH/G1 [2] [ratio] | Absorbance value [3] [A650] | Relative binding affinity RI/G1 [3] [ratio] | Absorbance value [4] [A650] | Increased factor of RIIB binding compared with wild-type IgG2 [4] [fold] | Relative binding affinity RIIB/G1 [4] [ratio] | Absorbance value [5] [A650] | Relative binding affinity RIIIAV/G1 [5] [ratio] | Absorbance value [6] [A650] | Relative binding affinity RIIAR/G1 [6] [ratio] | Absorbance value [7] [A650] | Relative binding affinity RIIIAF/G1 [7] [ratio]
IgG2 N297A (antibody, name in EU numbering, Entries include an unstated signal peptide) heavy: QVQLQESGPGLVKPSGTLSLTCAVSGGSISSSIWWSWVRQPPGKGLEWIGEIHHSGNTNCNPSLKSRVTISIDKSKNQFSLKLTSVTAADTAVYYCARAGTGTTLDYWGQGTLVTVSSASTKGPSVFPLAPCSRSTSESTAALGCLVKDYFPEPVTVSWNSGALTSGVHTFPAVLQSSGLYSLSSVVTVPSSNFGTQTYTCNVDHKPSNTKVDKTVERKCCVECPPCPAPPVAGPSVFLFPPKPKDTLMISRTPEVTCVVVDVSHEDPEVQFNWYVDGVEVHNAKTKPREEQFASTFRVVSVLTVVHQDWLNGKEYKCKVSNKGLPAPIEKTISKTKGQPREPQVYTLPPSREEMTKNQVSLTCLVKGFYPSDIAVEWESNGQPENNYKTTPPMLDSDGSFFLYSKLTVDKSRWQQGNVFSCSVMHEALHNHYTQKSLSLSPGK light: EIVLTQSPGTLSLSPGERATLSCRASQSVSGDYLAWYQQKLGQAPRLLIYGASIRATGIPDRFSGSGSGTDFTLTISKLEPEDFAVYYCQQYGSSPLTFGGGTKVEIKRTVAAPSVFIFPPSDEQLKSGTASVVCLLNNFYPREAKVQWKVDNALQSGNSQESVTEQDSKDSTYSLSSTLTLSKADYEKHKVYACEVTHQGLSSPVTKSFNRGEC | 0.57 | 0.04 | 0.08 | 0.08 | 0.03 | 0.07 | 0.93 | 0.09 | 0.06 | 0.06 | – | – | – | –
anti-human OX40 IgG2 antibody Mut_1 (L328W) (antibody, name in EU numbering, Substitutions in Eu numbering; entries include an unstated signal peptide) heavy: QVQLQESGPGLVKPSGTLSLTCAVSGGSISSSIWWSWVRQPPGKGLEWIGEIHHSGNTNCNPSLKSRVTISIDKSKNQFSLKLTSVTAADTAVYYCARAGTGTTLDYWGQGTLVTVSSASTKGPSVFPLAPCSRSTSESTAALGCLVKDYFPEPVTVSWNSGALTSGVHTFPAVLQSSGLYSLSSVVTVPSSNFGTQTYTCNVDHKPSNTKVDKTVERKCCVECPPCPAPPVAGPSVFLFPPKPKDTLMISRTPEVTCVVVDVSHEDPEVQFNWYVDGVEVHNAKTKPREEQFNSTFRVVSVLTVVHQDWLNGKEYKCKVSNKGWPAPIEKTISKTKGQPREPQVYTLPPSREEMTKNQVSLTCLVKGFYPSDIAVEWESNGQPENNYKTTPPMLDSDGSFFLYSKLTVDKSRWQQGNVFSCSVMHEALHNHYTQKSLSLSPGK light: EIVLTQSPGTLSLSPGERATLSCRASQSVSGDYLAWYQQKLGQAPRLLIYGASIRATGIPDRFSGSGSGTDFTLTISKLEPEDFAVYYCQQYGSSPLTFGGGTKVEIKRTVAAPSVFIFPPSDEQLKSGTASVVCLLNNFYPREAKVQWKVDNALQSGNSQESVTEQDSKDSTYSLSSTLTLSKADYEKHKVYACEVTHQGLSSPVTKSFNRGEC | 1.02 | 0.35 | 0.62 | 0.17 | 0.06 | 0.64 | 8.51 | 0.85 | 0.09 | 0.09 | 0.22 | 0.83 | 0.07 | 0.38

The next lines start with the values.

RIIB/RIIAR [1] [ratio] | Absorbance value [2] [A650] | Relative binding affinity RIIAH/G1 [2] [ratio] | Absorbance value [3] [A650] | Relative binding affinity RI/G1 [3] [ratio] | Absorbance value [4] [A650] | Increased factor of RIIB binding compared with wild-type IgG2 [4] [fold] | Relative binding affinity RIIB/G1 [4] [ratio] | Absorbance value [5] [A650] | Relative binding affinity RIIIAV/G1 [5] [ratio] | Absorbance value [6] [A650] | Relative binding affinity RIIAR/G1 [6] [ratio] | Absorbance value [7] [A650] | Relative binding affinity RIIIAF/G1 [7] [ratio] | Binder
1.21 | 0.32 | 0.56 | 0.14 | 0.05 | 1 | 13.4 | 1.33 | 0.06 | 0.06 | 0.29 | 1.09 | 0.07 | 0.38 | anti-human OX40 IgG2 antibody Mut_2 (H268D/S298L/L328W) (antibody, name in EU numbering, Substitutions in Eu numbering; entries include an unstated signal peptide) heavy: QVQLQESGPGLVKPSGTLSLTCAVSGGSISSSIWWSWVRQPPGKGLEWIGEIHHSGNTNCNPSLKSRVTISIDKSKNQFSLKLTSVTAADTAVYYCARAGTGTTLDYWGQGTLVTVSSASTKGPSVFPLAPCSRSTSESTAALGCLVKDYFPEPVTVSWNSGALTSGVHTFPAVLQSSGLYSLSSVVTVPSSNFGTQTYTCNVDHKPSNTKVDKTVERKCCVECPPCPAPPVAGPSVFLFPPKPKDTLMISRTPEVTCVVVDVSDEDPEVQFNWYVDGVEVHNAKTKPREEQFNLTFRVVSVLTVVHQDWLNGKEYKCKVSNKGWPAPIEKTISKTKGQPREPQVYTLPPSREEMTKNQVSLTCLVKGFYPSDIAVEWESNGQPENNYKTTPPMLDSDGSFFLYSKLTVDKSRWQQGNVFSCSVMHEALHNHYTQKSLSLSPGK light: EIVLTQSPGTLSLSPGERATLSCRASQSVSGDYLAWYQQKLGQAPRLLIYGASIRATGIPDRFSGSGSGTDFTLTISKLEPEDFAVYYCQQYGSSPLTFGGGTKVEIKRTVAAPSVFIFPPSDEQLKSGTASVVCLLNNFYPREAKVQWKVDNALQSGNSQESVTEQDSKDSTYSLSSTLTLSKADYEKHKVYACEVTHQGLSSPVTKSFNRGEC
1.44 | 0.34 | 0.6 | 0.18 | 0.07 | 0.94 | 12.6 | 1.25 | 0.07 | 0.08 | 0.23 | 0.87 | 0.08 | 0.4 | anti-human OX40 IgG2 antibody Mut_3 (S267V/S298L/L328W) (antibody, name in EU numbering, Substitutions in Eu numbering; entries include an unstated signal peptide) heavy: QVQLQESGPGLVKPSGTLSLTCAVSGGSISSSIWWSWVRQPPGKGLEWIGEIHHSGNTNCNPSLKSRVTISIDKSKNQFSLKLTSVTAADTAVYYCARAGTGTTLDYWGQGTLVTVSSASTKGPSVFPLAPCSRSTSESTAALGCLVKDYFPEPVTVSWNSGALTSGVHTFPAVLQSSGLYSLSSVVTVPSSNFGTQTYTCNVDHKPSNTKVDKTVERKCCVECPPCPAPPVAGPSVFLFPPKPKDTLMISRTPEVTCVVVDVVHEDPEVQFNWYVDGVEVHNAKTKPREEQFNLTFRVVSVLTVVHQDWLNGKEYKCKVSNKGWPAPIEKTISKTKGQPREPQVYTLPPSREEMTKNQVSLTCLVKGFYPSDIAVEWESNGQPENNYKTTPPMLDSDGSFFLYSKLTVDKSRWQQGNVFSCSVMHEALHNHYTQKSLSLSPGK light: EIVLTQSPGTLSLSPGERATLSCRASQSVSGDYLAWYQQKLGQAPRLLIYGASIRATGIPDRFSGSGSGTDFTLTISKLEPEDFAVYYCQQYGSSPLTFGGGTKVEIKRTVAAPSVFIFPPSDEQLKSGTASVVCLLNNFYPREAKVQWKVDNALQSGNSQESVTEQDSKDSTYSLSSTLTLSKADYEKHKVYACEVTHQGLSSPVTKSFNRGEC
0.46 | 0.48 | 0.84 | 0.25 | 0.1 | 1.92 | 25.6 | 2.54 | 0.05 | 0.06 | 1.44 | 5.51 | 0.06 | 0.32 | anti-human OX40 IgG2 antibody Mut_4 (V234M/S267E/S298L/L328W) (antibody, Substitutions in Eu numbering; entries include an unstated signal peptide) heavy: QVQLQESGPGLVKPSGTLSLTCAVSGGSISSSIWWSWVRQPPGKGLEWIGEIHHSGNTNCNPSLKSRVTISIDKSKNQFSLKLTSVTAADTAVYYCARAGTGTTLDYWGQGTLVTVSSASTKGPSVFPLAPCSRSTSESTAALGCLVKDYFPEPVTVSWNSGALTSGVHTFPAVLQSSGLYSLSSVVTVPSSNFGTQTYTCNVDHKPSNTKVDKTVERKCCVECPPCPAPPMAGPSVFLFPPKPKDTLMISRTPEVTCVVVDVEHEDPEVQFNWYVDGVEVHNAKTKPREEQFNLTFRVVSVLTVVHQDWLNGKEYKCKVSNKGWPAPIEKTISKTKGQPREPQVYTLPPSREEMTKNQVSLTCLVKGFYPSDIAVEWESNGQPENNYKTTPPMLDSDGSFFLYSKLTVDKSRWQQGNVFSCSVMHEALHNHYTQKSLSLSPGK light: EIVLTQSPGTLSLSPGERATLSCRASQSVSGDYLAWYQQKLGQAPRLLIYGASIRATGIPDRFSGSGSGTDFTLTISKLEPEDFAVYYCQQYGSSPLTFGGGTKVEIKRTVAAPSVFIFPPSDEQLKSGTASVVCLLNNFYPREAKVQWKVDNALQSGNSQESVTEQDSKDSTYSLSSTLTLSKADYEKHKVYACEVTHQGLSSPVTKSFNRGEC
